In paper PMC5299624:

Experiments:
Test in all cases: ITC
[1] = molecular target: human NaV1.5 CTD (1773-1940) D1790G (human) (UniProt Q14524)
[2] = molecular target: human NaV1.2 CTD (1777-1937) R1918H (human) (UniProt Q99250)
[3] = molecular target: human NaV1.5 CTD (1773-1940) R1913H (human) (UniProt Q14524)
[4] = molecular target: human NaV1.5 CTD (1773-1940) Y1795C (human) (UniProt Q14524)
[5] = molecular target: human NaV1.5 CTD (1773-1940) Y1795H (human) (UniProt Q14524)
[6] = molecular target: human NaV1.5 CTD (1773-1940) L1917K (human) (UniProt Q14524)
[7] = molecular target: human NaV1.5 C-terminal domain (CTD), amino acids 1773-1940, wild type (human) (UniProt Q14524)
[8] = molecular target: human NaV1.5 CTD (1773-1940) Q1909R (human) (UniProt Q14524)
[9] = molecular target: human NaV1.2 CTD (1777-1937) H1853R (human) (UniProt Q99250)
[10] = molecular target: human NaV1.6 C-terminal domain (CTD), amino acids 1769-1926, wild type (human) (UniProt Q9UQD0)
[11] = molecular target: human NaV1.2 C-terminal domain (CTD), amino acids 1777-1937, wild type (human) (UniProt Q99250)

dH [2]: -7.5 kcal/mol
dH [9]: -8.3 kcal/mol
dH [10]: -17.5 kcal/mol
dH [11]: -4.54 kcal/mol
stoichiometry N [11]: 1.02
Substance: calmodulin (CaM) (from UniProt P0DP23 1-149) (natural protein)
dH [1]: -10.5 kcal/mol
stoichiometry N [1]: 0.25
stoichiometry N [3]: 0.73
dH [4]: -7.43 kcal/mol
stoichiometry N [4]: 0.92
dH [5]: -10.2 kcal/mol
stoichiometry N [5]: 0.76
dH [6]: -9.8 kcal/mol
stoichiometry N [6]: 0.98
dH [7]: -10.5 kcal/mol
dH [8]: -14.9 kcal/mol
